The nature of this data set: Kinetic assessment of adenosine deaminase activity (ammonia assay, Michaelis-Menten). The settings on record: [E] = 8.5 nM; for kcat: kcat=Vmax/0.0085/60. It is filed as biochemical. On the procedure: Adenosine deaminase activity was determined by the measurement of ammonia released from adenosine when broken down to inosine. Ammonia was measured using a commercially available Ammonia Assay kit (Cat. No. AA0100, Sigma-Aldrich, St. Louis, Mo.). The kit contains dry reagents containing α-ketoglutaric acid and NADPH, which were reconstituted with 5 mL water prior to use in the assay. Ammonia reacts with α-ketogluaric acid (KGA) and reduced nicotinamide adenine dinucleotide phosphate (NADPH) in the presence of L-glutamate dehydrogenase (GDH).
Kinetics parameters of rHuADA2 WT and variants were compared using this assay at different adenosine concentrations at pH 7.6 and 6.5. Adenosine concentrations ranging from 20 μM to 20 mM were used. Sub-molar concentration of adenosine stock was prepared in 1N NaOH.
For the enzymatic assays at pH 7.6, adenosine was serially diluted with 100 mM sodium acetate (NaOAc), pH 4.9. A 2× reaction mixture was prepared, containing reconstituted ammonia assay reagent (containing about 4 mM α-ketoglutarate and about 300 μM NADPH), WT rHuADA2 or variants at 1 μg/mL (17 nM) and glutamate dehydrogenase (GDH, 1:50 dilution). 85 μL of adenosine was added to 85 μL 2× mixture in duplicate in a UV-transparent half-area plate. The change in absorbance (ΔA) at 340 nm over time at room temperature was monitored.
For the enzymatic assay at pH 6.5, adenosine was serially diluted with 200 mM piperazine-N,N′-bis(2-ethanesulfonic acid) (PIPES), pH 6.5. A 2× reaction mixture in 200 mM PIPES, pH 6.5 was prepared, containing 4 mM α-ketoglutarate, 300 μM NADPH, 1 μg/mL (17 nM) rHuADA2 or variants and 50 U/mL GDH (Cat No. G2626, Sigma-Aldrich). The enzymatic reaction was initiated by adding equal volume of adenosine to the 2× mixture in a UV-transparent half-area plate as described above, and the change in absorbance (AA) at 340 nm over time at room temperature was monitored.
Adenosine deaminase activity in mU/mL (μM/min equivalent) was calculated using the following formula: 1 mU/mL=−(−ΔA/min×Tv)/(Sv×ϵ×1) • where Tv=total volume (170 μL), Sv=sample volume (85 μL), ϵ=6.22×10^−3 μM^−1 cm^−1, 1=1 cm.
The activity data were fitted with non-linear regression of Michaelis-Menten equation using Graphpad Prism software to obtain Km and Vmax. Other kinetics parameters such as kcat and kcat/Km were also determined.

B1: R222Q/R23E: ADA2 combination variant SEQ ID NO:265 (protein)
chain: IDETRAHLLLKEKMMRLGGELVLNTKEELANERLMTLKIAEMKEAMRTLIFPPSMHFFQAKHLIERSQVFNILRMMPKGAALHLHDIGIVTMDWLVRNVTYRPHCHICFTPRGIMQFRFAHPTPRPSEKCSKWILLEDYRKRVQNVTEFDDSLLRNFTLVTQHPEVIYTNQNVVWSKFETIFFTISGLIHYAPVFRDYVFRSMQEFYEDNVLYMEIRAQLLPVYELSGEHHDEEWSVKTYQEVAQKFVETHPEFIGIKIIYSDHRSKDVAVIAESIRMAMGLRIKFPTVVAGFDLVGHEDTGHSLHDYKEALMIPAKDGVKLPYFFHAGETDWQGTSIDRNILDALMLNTTRIGHGFALSKHPAVRTYSWKKDIPIEVCPISNQVLKLVSDLRNHPVATLMATGHPMVISSDDPAMFGAKGLSYDFYEVFMGIGGMKADLRTLKQLAMNSIKYSTLLESEKNTFMEIWKKRWDKFIADVATK
modifications: human ADA2 R219Q/R20E, mature numbering
As for B1, where the note is “pH 6.5”, the Km (usually the concentration of substrate that gives half-maximal velocity) is 840 µM; the Vmax (as a rule, the top rate of the reaction or transport when substrate is in excess) was found to be 60.47 µM/min; the kcat (in general, the maximal rate divided by the concentration of active sites) came to 118.57 s⁻¹. In addition, under “pH 7.6”, the Km was 1460 µM, the Vmax was 84.71 µM/min and the kcat was determined as 166.10 s⁻¹.

B2: R222Q/K374D/R23E: ADA2 combination variant SEQ ID NO:267 (protein)
chain: IDETRAHLLLKEKMMRLGGELVLNTKEELANERLMTLKIAEMKEAMRTLIFPPSMHFFQAKHLIERSQVFNILRMMPKGAALHLHDIGIVTMDWLVRNVTYRPHCHICFTPRGIMQFRFAHPTPRPSEKCSKWILLEDYRKRVQNVTEFDDSLLRNFTLVTQHPEVIYTNQNVVWSKFETIFFTISGLIHYAPVFRDYVFRSMQEFYEDNVLYMEIRAQLLPVYELSGEHHDEEWSVKTYQEVAQKFVETHPEFIGIKIIYSDHRSKDVAVIAESIRMAMGLRIKFPTVVAGFDLVGHEDTGHSLHDYKEALMIPAKDGVKLPYFFHAGETDWQGTSIDRNILDALMLNTTRIGHGFALSKHPAVRTYSWDKDIPIEVCPISNQVLKLVSDLRNHPVATLMATGHPMVISSDDPAMFGAKGLSYDFYEVFMGIGGMKADLRTLKQLAMNSIKYSTLLESEKNTFMEIWKKRWDKFIADVATK
modifications: human ADA2 R219Q/K371D/R20E, mature numbering
On to B2, for which, under “pH 6.5”, the Km is 670 µM, the Vmax was found to be 60.68 µM/min and the kcat was found to be 118.98 s⁻¹. Besides, under “pH 7.6”, the Km was 1340 µM, the Vmax was found to be 88.43 µM/min and the kcat turned out to be 173.39 s⁻¹.

B3: R222Q/K374E/R23E: ADA2 combination variant SEQ ID NO:266 (protein)
chain: IDETRAHLLLKEKMMRLGGELVLNTKEELANERLMTLKIAEMKEAMRTLIFPPSMHFFQAKHLIERSQVFNILRMMPKGAALHLHDIGIVTMDWLVRNVTYRPHCHICFTPRGIMQFRFAHPTPRPSEKCSKWILLEDYRKRVQNVTEFDDSLLRNFTLVTQHPEVIYTNQNVVWSKFETIFFTISGLIHYAPVFRDYVFRSMQEFYEDNVLYMEIRAQLLPVYELSGEHHDEEWSVKTYQEVAQKFVETHPEFIGIKIIYSDHRSKDVAVIAESIRMAMGLRIKFPTVVAGFDLVGHEDTGHSLHDYKEALMIPAKDGVKLPYFFHAGETDWQGTSIDRNILDALMLNTTRIGHGFALSKHPAVRTYSWEKDIPIEVCPISNQVLKLVSDLRNHPVATLMATGHPMVISSDDPAMFGAKGLSYDFYEVFMGIGGMKADLRTLKQLAMNSIKYSTLLESEKNTFMEIWKKRWDKFIADVATK
modifications: human ADA2 R219Q/K371E/R20E, mature numbering
Take B3: where the note is “pH 6.5”, the Km stood at 860 µM, the Vmax was 54.48 µM/min and the kcat was found to be 106.82 s⁻¹. For the same molecule, where the note is “pH 7.6”, the Km was 1920 µM, the Vmax was found to be 78.42 µM/min and the kcat was 153.76 s⁻¹.

Values taken from patent US9969998B2, “Compositions of adenosine deaminase-2 (ADA2), variants thereof and methods of using same” (Halozyme, Inc., priority 2014, dated 2018).
